Measured values reported in patent US9932382B2, “Kv2.1 channel-derived peptides and methods of use” (University of Pittsburgh—Of the Commonwealth System of …, priority 2014, dated 2018).

Experiments:
Kv2.1S800E = assay: Whole-cell K+ current densities in CHO cells expressing Kv2.1S800E; format: cell-based; details: CHO cells co-transfected with Kv2.1S800E and peptide plasmid
Experimental: For electrophysiological experiments, mixed cortical neuronal/glial cultures were prepared from embryonic day 16 (E16) Sprague-Dawley rats (Charles River Laboratories, Wilmington, Mass., USA). Donor rats were euthanized by gradual CO2 exposure. Cortices were dissociated with trypsin, and the resultant cell suspension, adjusted to 670,000 cells per well, was plated on glass coverslips in 6-well plates as described previously (Hartnett et al., J Neurochem 68, 1836-1845, 1997). Non-neuronal cell proliferation was inhibited after two weeks in culture with 1-2 μM cytosine arabinoside, and cultures utilized at three to four weeks in vitro. […]
Current recordings were performed on eGFP-positive co-transfected neurons or CHO cells using the whole-cell patch clamp configuration technique as described previously (McLaughlin et al., J Neurosci 21, 3303-3311, 2001). […] To determine current density values, steady-state current amplitudes were measured 180 msec after the initiation of the +10 mV step and normalized to cell capacitance. […] By repeatedly adjusting the scaling factor k, an automated binary search algorithm determined threshold synaptic conductance (thresh-gsyn), the conductance required to reach firing threshold (Kullmann et al., J Neurophysiol 91, 542-54, 2004). […]

Kv2.1/syntaxin binding = target: T1, Kv2.1/syntaxin binding (Homo sapiens, UniProt Q16623); assay: Co-immunoprecipitation of Kv2.1 with syntaxin from transfected CHO cells; format: cell-based; details: for effect on Kv2.1/syntaxin binding (co-immunoprecipitation): syntaxin-expressing CHO cells co-transfected with Kv2.1 and peptide plasmid, syntaxin immunoprecipitates probed for Kv2.1
T1 construct: expressed in transfected cells; host or cells: CHO cells
Experimental: For electrophysiological experiments, mixed cortical neuronal/glial cultures were prepared from embryonic day 16 (E16) Sprague-Dawley rats (Charles River Laboratories, Wilmington, Mass., USA). Donor rats were euthanized by gradual CO2 exposure. Cortices were dissociated with trypsin, and the resultant cell suspension, adjusted to 670,000 cells per well, was plated on glass coverslips in 6-well plates as described previously (Hartnett et al., J Neurochem 68, 1836-1845, 1997). Non-neuronal cell proliferation was inhibited after two weeks in culture with 1-2 μM cytosine arabinoside, and cultures utilized at three to four weeks in vitro. For neuronal transfection, cells were treated for five hours in serum-free medium with 2 μL LIPOFECTAMINE™ 2000 (Invitrogen, Carlsbad, Calif.), 50 μL Optimem (GIBCO, Grand Island, N.Y.), and 1.5 μg DNA per well. For CHO cell transfections, cells were plated on coverslips in 24-well plates at a density of 5.6×10^4 cells per well for electrophysiological measurements or in 100 mm dishes at a density of 1.7×10^6 cells per dish for biochemical studies. Cells were treated for 3-4 hours in serum-free medium with a total of 1.2 μL LIPOFECTAMINE™ and 0.28 μg DNA per well for electrophysiology, or 55.1 μL LIPOFECTAMINE™ and 7.33 μg DNA per dish for biochemistry. Following transfection, cells were maintained in F12 medium containing fetal bovine serum at 37° C., 5% CO2 for 24 hours prior to experimentation.
Protein was harvested by washing cell culture dishes with ice cold PBS followed by a short incubation with 1% 3-[(3-cholamidopropyl) dimethylammonio]-1-propanesulfonate buffer. Protein A/G agarose bead slurry (Santa Cruz, Dallas, Tex.) was added to the samples and rocked at 4° C. for 1 hour in order to pre-clear non-specific protein binding. Samples were then incubated overnight at 4° C. with the appropriate immunoprecipitating antibodies. Following another incubation with the bead slurry, the protein samples were prepared/denatured by the addition of sample preparation buffer (625 mM Tris, 25% glycerol, 2% sodium dodecyl sulfate (SDS), 0.01% bromophenol blue and 5% β-mercaptoethanol) and heated at 95° C. for 5 min prior to SDS polyacrylamide gel electrophoresis and immunoblotting.
Protein samples from equal amounts of cell lysate were separated on 10% sodium dodecyl sulfate SDS polyacrylamide gels by electrophoresis using the Mini Protean 3 System (Bio-Rad, Hercules, Calif.). Separated protein bands were transferred onto 0.2 μm nitrocellulose membranes (Bio-Rad), blocked with 1% bovine serum albumin (BSA) in PBS with 0.05% Tween 20 (PBST) at room temperature for 1 hour, and probed with appropriate primary antibodies diluted in PBST. Blots were then incubated with infrared fluorescent goat secondary antibodies at room temperature for 1 hour, visualized using the Odyssey Imaging System (LI-COR Biosciences, Lincoln, Nebr.), and quantified using infrared fluorimetry.
After establishing that C1a effectively precluded the oxidant-induced K^+ current increase in neurons, studies were performed to identify the sub-domains within C1a that could retain the ability to disrupt Kv2.1/syntaxin binding. C1a was divided into overlapping proximal and distal segments, hereafter referred to as C1a411-472 and C1a441-522, respectively. Co-immunoprecipitation experiments were performed to compare the ability of C1a and the smaller segments to displace Kv2.1 from syntaxin. Syntaxin immunoprecipitates of protein samples obtained from CHO cells transfected with a syntaxin-expressing plasmid, and co-transfected with Kv2.1 together with C1a, C1a411-472, or C1a441-522, were probed for Kv2.1.

T1 sequence (Q16623 whole entry): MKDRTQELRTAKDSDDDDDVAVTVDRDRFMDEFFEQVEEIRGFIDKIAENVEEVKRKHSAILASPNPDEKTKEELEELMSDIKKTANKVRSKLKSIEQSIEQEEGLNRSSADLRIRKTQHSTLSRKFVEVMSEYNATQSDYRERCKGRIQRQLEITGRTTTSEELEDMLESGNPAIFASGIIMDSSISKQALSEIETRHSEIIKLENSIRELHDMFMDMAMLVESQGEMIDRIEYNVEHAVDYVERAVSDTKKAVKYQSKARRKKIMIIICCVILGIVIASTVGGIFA

B1: C1a: rat Kv2.1 C1a peptide, residues 411-522 of SEQ ID NO: 3, expressed from a plasmid (protein, listed as Rattus norvegicus)
chain: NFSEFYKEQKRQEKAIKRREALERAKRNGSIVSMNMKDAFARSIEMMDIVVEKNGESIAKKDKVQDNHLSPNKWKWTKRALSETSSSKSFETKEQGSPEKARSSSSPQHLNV
B1 was tested, and the “effect on enhanced K+ currents of Kv2.1S800E” value (Kv2.1S800E) was “suppressed the enhanced K^+ currents” and the “effect on Kv2.1/syntaxin binding (co-immunoprecipitation)” value (Kv2.1/syntaxin binding) was “inhibited Kv2.1/syntaxin binding”.

B2: C1a441-522: distal segment of C1a, residues 441-522 of rat Kv2.1 (protein, UniProt P15387 441-522, looked up, fragment)
chain: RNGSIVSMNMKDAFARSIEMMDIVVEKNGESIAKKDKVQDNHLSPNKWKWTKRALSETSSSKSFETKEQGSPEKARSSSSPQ
For B2, the “effect on enhanced K+ currents of Kv2.1S800E” value (Kv2.1S800E) was “blocked the increase in currents”, the “ability to displace Kv2.1 from syntaxin with Src kinase overexpression” value (Kv2.1/syntaxin binding; CHO cells co-transfected with Kv2.1 and Src) was “retained the ability to displace Kv2.1 from syntaxin” and the “effect on Kv2.1/syntaxin binding (co-immunoprecipitation)” value (Kv2.1/syntaxin binding) was “inhibited Kv2.1/syntaxin binding”.
